Legend:
mCherry-EB3 full length [1] = target: mCherry-EB3 full length (UniProt Q9UPY8)
[2] = target: dynamic microtubules (porcine brain tubulin) (porcine); assay: speed of membrane tube spreading on microtubules compared with a one-step model; His-GFP-MTLS bound to GUV membrane, no EB3; the attachment rate was chosen by comparing model curves for 8, 16 and 26 s^-1 with experimental data
mCherry-EB3 full length [3] = target: mCherry-EB3 full length (UniProt Q9UPY8); remark: listed apart in the source
mCherry-EB3 full length [4] = target: mCherry-EB3 full length (UniProt Q9UPY8); assay: single-molecule TIRF microscopy (dwell times and binding events on microtubules); 0.12 nM His-GFP-MTLS, 50 ms/frame, 200 nM mCherry-EB3 as tracer of plus ends; dwell times fitted with an exponential; MT tip taken as 200 nm long
mCherry-EB3 full length [5] = target: mCherry-EB3 full length (UniProt Q9UPY8); assay: fluorescence correlation spectroscopy; 15 nM His-GFP-MTLS and 200 nM EB3 on dynamic MTs, no GUVs; peak intensity at passing MT tips against solution; 60 sites assumed in 6 dimer lengths, 1:1 EB3:MTLS assumed

UniProt Q9UPY8, sequence (Q9UPY8 whole entry): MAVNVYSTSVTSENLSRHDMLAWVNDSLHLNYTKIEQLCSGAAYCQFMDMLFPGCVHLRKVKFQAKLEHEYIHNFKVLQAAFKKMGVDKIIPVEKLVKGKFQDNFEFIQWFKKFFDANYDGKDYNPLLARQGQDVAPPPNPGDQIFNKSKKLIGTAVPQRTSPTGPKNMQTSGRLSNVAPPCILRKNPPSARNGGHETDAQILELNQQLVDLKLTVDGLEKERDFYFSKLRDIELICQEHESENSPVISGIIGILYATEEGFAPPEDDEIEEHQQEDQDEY
dynamic microtubules (porcine brain tubulin) (porcine), sequence (P68363 whole entry, chain 1 of 2): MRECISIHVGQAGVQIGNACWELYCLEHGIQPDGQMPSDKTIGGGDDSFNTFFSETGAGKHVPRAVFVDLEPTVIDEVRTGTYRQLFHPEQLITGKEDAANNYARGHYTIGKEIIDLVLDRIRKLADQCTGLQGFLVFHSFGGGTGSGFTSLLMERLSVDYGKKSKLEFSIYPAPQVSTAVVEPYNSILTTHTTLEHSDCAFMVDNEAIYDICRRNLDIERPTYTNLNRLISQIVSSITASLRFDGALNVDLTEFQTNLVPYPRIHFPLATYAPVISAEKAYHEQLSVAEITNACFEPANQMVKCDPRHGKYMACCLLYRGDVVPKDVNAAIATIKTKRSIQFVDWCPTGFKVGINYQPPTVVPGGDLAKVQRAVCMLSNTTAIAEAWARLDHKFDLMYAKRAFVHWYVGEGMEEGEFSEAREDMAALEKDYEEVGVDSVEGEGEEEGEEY
dynamic microtubules (porcine brain tubulin) (porcine), sequence (P02554 whole entry, chain 2 of 2, further chain): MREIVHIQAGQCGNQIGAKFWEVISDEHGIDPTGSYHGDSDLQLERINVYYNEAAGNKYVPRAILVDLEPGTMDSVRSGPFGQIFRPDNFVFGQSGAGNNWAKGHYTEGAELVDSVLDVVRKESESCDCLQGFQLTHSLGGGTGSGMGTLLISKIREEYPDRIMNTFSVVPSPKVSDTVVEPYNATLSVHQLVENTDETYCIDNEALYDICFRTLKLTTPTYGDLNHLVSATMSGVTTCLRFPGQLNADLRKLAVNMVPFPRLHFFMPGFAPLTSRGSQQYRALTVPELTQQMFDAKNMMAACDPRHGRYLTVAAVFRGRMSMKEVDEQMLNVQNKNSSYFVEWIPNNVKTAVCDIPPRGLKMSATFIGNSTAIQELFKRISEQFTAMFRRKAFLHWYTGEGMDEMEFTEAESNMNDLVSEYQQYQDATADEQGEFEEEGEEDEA

| duration of the first positive displacement of Bio-mCherry-MTLS-coated beads at growing MT tips with 100 nM EB3 (most events shorter than 1 s without EB3) (mCherry-EB3 full length [1]) [s] | k on-m (estimated attachment rate of membrane-bound His-GFP-MTLS to the MT lattice, no EB3) [2] [s⁻¹] | tubulation of GUVs on dynamic MTs at 200 nM EB3 and 15 nM His-GFP-MTLS (mCherry-EB3 full length [3]) [%] | fold association rate at MT tips (with 200 nM mCherry-EB3) over the on-rate at the MT shaft (mCherry-EB3 full length [4]) [fold] | maximum probability of being bound to the EB3-bound MT tip (mCherry-EB3 full length [5]) | Substance |
| --- | --- | --- | --- | --- | --- |
| 15 |  |  |  |  | Bio-mCherry-MTLS (from UniProt Q03001 7528-7570) |
|  | 16 | 90 | 2.5 | 0.46 | His-GFP-MTLS (from UniProt Q03001 7528-7570) |

From PMC7090928
